In this assay the target is HLA-A*02:01 (Homo sapiens, UniProt P04439, D140Y/D185E/D98H/E176V/E277Q/G131W/G231S/I119V/I121R/I166T/I218V/L300P/L318F/N151K/N90K/P208A/P217A/Q86G/Q94H/R138H/R169H/T345S). As to the kind of experiment: MHC binding assay (UV-ligand exchange, β2m ELISA, peptide exchange yield). As to conditions: MHC class I binding score; binding to HLA-A*02:01 ranged by peptide exchange yield (UV-ligand exchange, β2m ELISA). In outline:
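Binding is expressed as peptide exchange yield: stabilized MHC complexes were quantified by β2m ELISA, with a 450 nm TMB read-out on streptavidin-coated plates. Complexes came from UV-ligand exchange, where UV irradiation cleaves a photolabile peptide so the candidate peptide can load.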
Take “392 (ALLHPQGFEV; listed as Homo sapiens) [compound 392]”: the Peptide exchange result is recorded as ““++” (≧20% = ++)”.
Turning to “393 (GLLDTQTSQVLTA; listed as Homo sapiens) [compound 393]”, the Peptide exchange result was ““++” (≧20% = ++)”.
On to “394 (LLAVIGGLVYL; listed as Homo sapiens) [compound 394]”, for which the Peptide exchange result is recorded as ““+++” (≧50 = +++)”.
In the case of “396 (ALLPDLPAL; listed as Homo sapiens) [compound 396]”, the Peptide exchange entry was ““+++” (≧50 = +++)”.
As for “397 (YLFGERLLEC; listed as Homo sapiens) [compound 397]”, the Peptide exchange entry is ““+++” (≧50 = +++)”.
For the substance “398 (KLLEEDGTIITL; listed as Homo sapiens) [compound 398]”, the Peptide exchange result was ““++” (≧20% = ++)”.
“399 (YLFEPLYHV; listed as Homo sapiens) [compound 399]”: the Peptide exchange entry is ““+++” (≧50 = +++)”.
Regarding “400 (SLLTEQDLWTV; listed as Homo sapiens) [compound 400]”, the Peptide exchange entry is ““++” (≧20% = ++)”.
In the case of “401 (ILLDDTGLAYI; listed as Homo sapiens) [compound 401]” it was ““+++” (≧50 = +++)”; in that of “402 (VLFSGALLGL; listed as Homo sapiens) [compound 402]”, ““++” (≧20% = ++)”; in that of “403 (KLYDRILRV; listed as Homo sapiens) [compound 403]”, ““++” (≧20% = ++)”.
With “405 (ALYDVFLEV; listed as Homo sapiens) [compound 405]”, the Peptide exchange entry was ““++” (≧20% = ++)”.
Turning to “407 (YLMDLINFL; listed as Homo sapiens) [compound 407]”, the Peptide exchange entry is reported as ““+++” (≧50 = +++)”.
“408 (VLDDSIYLV; listed as Homo sapiens) [compound 408]”: the Peptide exchange entry is ““++” (≧20% = ++)”.
As for “409 (LLDAMNYHL; listed as Homo sapiens) [compound 409]”, the Peptide exchange entry is recorded as ““++” (≧20% = ++)”.
On to “412 (YLDDLNEGVYI; listed as Homo sapiens) [compound 412]”, for which the Peptide exchange result is recorded as ““++” (≧20% = ++)”.
In the case of “426 (RLADKSVLV; listed as Homo sapiens) [compound 426]” it was ““+++” (≧50 = +++)”.
Regarding “427 (ALLPLSPYL; listed as Homo sapiens) [compound 427]”, the Peptide exchange entry is ““+++” (≧50 = +++)”.
Consider “428 (KLGHTDILVGV; listed as Homo sapiens) [compound 428]”, for which the Peptide exchange result is on record as ““++” (≧20% = ++)”.
The value for “429 (GLVNDLARV; listed as Homo sapiens) [compound 429]” was ““++” (≧20% = ++)”.
As for “430 (HLYSSIEHLTT; listed as Homo sapiens) [compound 430]”, the Peptide exchange result is listed as ““+++” (≧50 = +++)”.
“431 (SLVNVVPKL; listed as Homo sapiens) [compound 431]”: the Peptide exchange entry is reported as ““++” (≧20% = ++)”.
“432 (TLIEESAKV; listed as Homo sapiens) [compound 432]”: the Peptide exchange entry is given as ““++” (≧20% = ++)”.
As for “433 (AMLNEPWAV; listed as Homo sapiens) [compound 433]”, the Peptide exchange entry was ““+++” (≧50 = +++)”.
“434 (KVSNSGITRV; listed as Homo sapiens) [compound 434]”: the Peptide exchange entry is on record as ““++” (≧20% = ++)”.
As for “436 (HLAEVSAEV; listed as Homo sapiens) [compound 436]”, the Peptide exchange entry was ““+++” (≧50 = +++)”.
Consider “437 (SMAPGLVIQAV; listed as Homo sapiens) [compound 437]”, for which the Peptide exchange result is ““+++” (≧50 = +++)”.
The value for “438 (KLLPLAGLYL; listed as Homo sapiens) [compound 438]” was ““++++” (≧75% = ++++)”; that for “439 (YLLQEIYGI; listed as Homo sapiens) [compound 439]” was ““+++” (≧50 = +++)”; that for “440 (ALADGVTMQV; listed as Homo sapiens) [compound 440]” was ““++” (≧20% = ++)”.
As to “441 (ALLENPKMEL; listed as Homo sapiens) [compound 441]”, the Peptide exchange result is given as ““+++” (≧50 = +++)”.
For “442 (GLLGGGGVLGV; listed as Homo sapiens) [compound 442]”, the Peptide exchange entry is given as ““+++” (≧50 = +++)”.
Regarding “444 (GLLRDEALAEV; listed as Homo sapiens) [compound 444]”, the Peptide exchange entry was ““+++” (≧50 = +++)”.
As to “447 (QLVPALAKV; listed as Homo sapiens) [compound 447]”, the Peptide exchange entry was ““++” (≧20% = ++)”.
Turning to “448 (NLLETKLQL; listed as Homo sapiens) [compound 448]”, the Peptide exchange result is ““+++” (≧50 = +++)”.
Take “449 (KLAEGLDIQL; listed as Homo sapiens) [compound 449]”: the Peptide exchange entry is recorded as ““+++” (≧50 = +++)”.
For the substance “450 (FMIDASVHPTL; listed as Homo sapiens) [compound 450]”, the Peptide exchange entry is given as ““+++” (≧50 = +++)”.
The value for “451 (LLLLDTVTMQV; listed as Homo sapiens) [compound 451]” was ““++” (≧20% = ++)”.
With “452 (ILLEHGADPNL; listed as Homo sapiens) [compound 452]”, the Peptide exchange entry is on record as ““+++” (≧50 = +++)”.
For the substance “453 (KLLEATSAV; listed as Homo sapiens) [compound 453]”, the Peptide exchange result is on record as ““++” (≧20% = ++)”.
Consider “455 (SLLKEPQKVQL; listed as Homo sapiens) [compound 455]”, for which the Peptide exchange result was ““++” (≧20% = ++)”.
On to “456 (LLIGHLERV; listed as Homo sapiens) [compound 456]”, for which the Peptide exchange entry is given as ““+++” (≧50 = +++)”.
Consider “457 (SLLPGNLVEKV; listed as Homo sapiens) [compound 457]”, for which the Peptide exchange result is ““+++” (≧50 = +++)”.
The value for “458 (SLIDKLYNI; listed as Homo sapiens) [compound 458]” was ““++” (≧20% = ++)”; that for “459 (ALITEVVRL; listed as Homo sapiens) [compound 459]” was ““++” (≧20% = ++)”.
For the substance “461 (VMFRTPLASV; listed as Homo sapiens) [compound 461]”, the Peptide exchange result is ““++” (≧20% = ++)”.
Take “462 (KLAKQPETV; listed as Homo sapiens) [compound 462]”: the Peptide exchange result was ““+++” (≧50 = +++)”.
Take “464 (ALNDCIYSV; listed as Homo sapiens) [compound 464]”: the Peptide exchange entry was ““+++” (≧50 = +++)”.
For “465 (QLCDLNAEL; listed as Homo sapiens) [compound 465]”, the Peptide exchange entry is on record as ““+++” (≧50 = +++)”.
As to “466 (VLIANLEKL; listed as Homo sapiens) [compound 466]”, the Peptide exchange result is ““++++” (≧75% = ++++)”.
The value for “467 (FLAKDFNFL; listed as Homo sapiens) [compound 467]” was ““+++” (≧50 = +++)”; that for “468 (YLRSVGDGETV; listed as Homo sapiens) [compound 468]” was ““+++” (≧50 = +++)”.
In the case of “469 (YLASDEITTV; listed as Homo sapiens) [compound 469]” it was ““+++” (≧50 = +++)”; in that of “471 (YLYNNMIAKI; listed as Homo sapiens) [compound 471]”, ““+++” (≧50 = +++)”.
In the case of “472 (KLLEVSDDPQV; listed as Homo sapiens) [compound 472]”, the Peptide exchange entry is ““+++” (≧50 = +++)”.
For “473 (AMATESILHFA; listed as Homo sapiens) [compound 473]”, the Peptide exchange result is ““+++” (≧50 = +++)”.
Take “474 (YLDPALELGPRNV; listed as Homo sapiens) [compound 474]”: the Peptide exchange entry is ““+++” (≧50 = +++)”.
In the case of “475 (LLLNEEALAQI; listed as Homo sapiens) [compound 475]”, the Peptide exchange entry is recorded as ““+++” (≧50 = +++)”.
Consider “476 (ALMERTGYSMV; listed as Homo sapiens) [compound 476]”, for which the Peptide exchange result was ““+++” (≧50 = +++)”.
Consider “477 (ALLPASGQIAL; listed as Homo sapiens) [compound 477]”, for which the Peptide exchange entry was ““+++” (≧50 = +++)”.
In the case of “478 (YLLHEKLNL; listed as Homo sapiens) [compound 478]” it was ““+++” (≧50 = +++)”.
As for “479 (SLFGNSGILENV; listed as Homo sapiens) [compound 479]”, the Peptide exchange entry was ““+++” (≧50 = +++)”.
As to “480 (ALLEDSCHYL; listed as Homo sapiens) [compound 480]”, the Peptide exchange entry was ““+++” (≧50 = +++)”.
In the case of “481 (GLIEDYEALL; listed as Homo sapiens) [compound 481]”, the Peptide exchange entry was ““+++” (≧50 = +++)”.
For the substance “484 (SLIEKVTQL; listed as Homo sapiens) [compound 484]”, the Peptide exchange result is given as ““+++” (≧50 = +++)”.
The value for “485 (NVPDSFNEV; listed as Homo sapiens) [compound 485]” was ““+++” (≧50 = +++)”; that for “486 (AVMESIQGV; listed as Homo sapiens) [compound 486]” was ““+++” (≧50 = +++)”; that for “487 (LLINSVFHV; listed as Homo sapiens) [compound 487]” was ““+++” (≧50 = +++)”.
For the substance “488 (FLAEDPKVTL; listed as Homo sapiens) [compound 488]”, the Peptide exchange entry is given as ““+++” (≧50 = +++)”.
As for “490 (FLLQHVQEL; listed as Homo sapiens) [compound 490]”, the Peptide exchange entry is recorded as ““+++” (≧50 = +++)”.

For the origin of these results see patent publication US20170002055A1, “Novel peptides and combination of peptides for use in immunotherapy against ovarian cancer and other cancers” (immatics biotechnologies GmbH, priority 2015, published 2017).
